Experimental data from patent US20230095558A1 (SPARX BIOTECH JIANGSU, published 2023).
No end group written: not given here.

Target: T1, TIM3 protein (cat #CHI-MF-210T3-0050, Chimerigen)
T1 construct: Bought recombinant protein used in SPR; also called TLM3 protein
Assay: SPR (OpenSPR), TIM3 protein immobilised on chip, peptide in flow
Method: SPR assay: Affinity identification between the TIM3-targeting binding peptides and TIM3 was performed by immobilizing TIM3 protein (50 μg/mL) on the surface of a nanogold sensor chip upon activation of EDC/NHS. […] The competitive binding ability of the TIM3-targeting binding peptides to the ligand was identified by immobilizing the Galectin-9 protein (25 μg/mL) on a sensor chip at a detection concentration of 100 μg/mL for the TIM3-targeting binding peptides, and at a concentration of the mixed sample of 100 μg/mL TIM3-targeting binding peptides and 10 μg/mL TIM3 protein. The detection sample was loaded at a flow rate of 20 μL/min for about 7 min according to the instrument instructions. The KD, ka and kd values were calculated and analyzed by Trace Drawer Evaluation (version 2.0) software.

Binder	Kd [µM]	koff [s⁻¹]	kon [M⁻¹ s⁻¹]
LTPHKHHKHLHA (Synthetic 12-mer from phage display screening) [P20-12-peptide (targeting TIM3)]	24.3	0.00625	–
FTYAHPVSHRWESSVHVDQW (Synthetic 20-mer from phage display screening) [K2-20-peptide (targeting TIM3)]	227	0.0103	–
ALWPSSSMSSTI (Synthetic 12-mer from phage display screening) [P1303-12-peptide (targeting TIM3)]	26.3	0.00308	117
SPFYYSGHQWVPHPRQAASY (Synthetic 20-mer from phage display screening) [K10-20-peptide (targeting TIM3)]	26.1	0.023	–
HDAFPRPHLFRN (not fully specified) [P1301-12-peptide (targeting TIM3)]	80.1	0.00428	–
SQEVFAWTFSPRWTTAPKAL (Synthetic 20-mer from phage display screening) [K3-20-peptide (targeting TIM3)]	20.1	0.0132	–
SHDTRSPFTWGR (Synthetic 12-mer from phage display screening) [P1307-12-peptide (targeting TIM3)]	117	0.00789	–
GSWNTFRAQPTI (Synthetic 12-mer from phage display screening) [P24-12-peptide (targeting TIM3)]	0.095	1.69e-05	–
WQQNNPHLWDVFLGVPRTTE (Synthetic 20-mer from phage display screening) [K5-20-peptide (targeting TIM3)]	18	0.016	–
ADFRVMADMSMY (Synthetic 12-mer from phage display screening) [P29-12-peptide (targeting TIM3)]	200	0.00747	–
